Holding throughout (test): EMSA
The test system of data set [1] is GlrR-His10 (E. coli) (Escherichia coli).
The target of data set [2] is T1, GlrR-His10 (E. coli) (Escherichia coli) (UniProt P0AFU4).
T1 sequence: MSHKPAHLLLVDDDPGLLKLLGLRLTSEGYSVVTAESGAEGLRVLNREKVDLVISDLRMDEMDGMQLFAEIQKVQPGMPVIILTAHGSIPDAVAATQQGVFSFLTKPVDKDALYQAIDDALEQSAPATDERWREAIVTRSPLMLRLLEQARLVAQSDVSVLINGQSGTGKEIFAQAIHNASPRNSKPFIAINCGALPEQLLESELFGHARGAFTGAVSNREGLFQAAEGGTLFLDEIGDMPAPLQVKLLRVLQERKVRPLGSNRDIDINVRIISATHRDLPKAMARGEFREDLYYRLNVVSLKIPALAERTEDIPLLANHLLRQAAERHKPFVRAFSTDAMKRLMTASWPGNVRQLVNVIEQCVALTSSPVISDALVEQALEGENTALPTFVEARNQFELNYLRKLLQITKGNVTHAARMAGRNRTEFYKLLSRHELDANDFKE

Data set [3] relates to GlrR-His10 (Y. pseudotuberculosis) (Yersinia pseudotuberculosis), ORF:f09f451a.
For a further data set, the target named is IHF (UniProt P0A6X7+P0A6Y1).
UniProt P0A6X7, sequence (P0A6X7 2-99, chain 1 of 2): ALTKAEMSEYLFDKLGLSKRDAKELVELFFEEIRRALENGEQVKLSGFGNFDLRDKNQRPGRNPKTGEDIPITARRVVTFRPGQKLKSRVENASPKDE
UniProt P0A6X7, sequence (P0A6Y1 whole entry, chain 2 of 2): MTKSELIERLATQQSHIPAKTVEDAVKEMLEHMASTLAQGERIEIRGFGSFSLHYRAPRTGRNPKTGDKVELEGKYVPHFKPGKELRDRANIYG
For data set [4], the system named is GlrR-His10 (Y. pseudotuberculosis) (Yersinia pseudotuberculosis).

This is an account of results in paper PMC3045617.

As for “S. typhimurium glmY promoter (-242 to +22)”, in data set [1], the Kd was found to be 230 nM. This counts as sub-micromolar. On to “ATTAATGCAGCTGGCACGACAGGTTTCCCGACTGGAAAGCGGGCAGTGAGCGCAACGCAATTAATGTGAGTTAGCTCACTCATTAGGCACCCCAGGCTTTACACTTTATGCTTCCGGCTCGTATGTTGTGTGGAATTGTGAGCGGATAACAATTTCACACAGGAAACAGCTATGACCATGATTACGGATTCACTGGCCGT (double strand) [lacZ promoter 200 bp control]”, for which, in data set [2], the binding result is “no binding”.

“CGTCTCTAGACATAAGAAGGTGAATGAGCCACTGGTTACCATTATGCAGTAATTGTGCCAACATTCAAAAGAATTTGTTAACATAATGATAGATATGAAAAATATCGTTATTCATGCTAAAAATGGCTCTGTCTGTTTTTTGCCCTTTCTGTCGCCAATCAGCAACACCTGCAACACCTAAAAATAAAACAATTTAAAATCAAATAGTTAAATGTCTCTTTTTGGCGACAACCTATCCCCCACTCATGTCGGGATTTCCCGACACTTTAATCTTGGTCGACGCGTGC (double strand) [S. typhimurium glmY promoter (-242 to +22)]” gave an equilibrium dissociation constant (Kd) in data set [2] of 230 nM.

Substance “Y. pseudotuberculosis glmY promoter (-257 to +22)” registered a Kd in data set [1] of 290 nM. That is a sub-micromolar value.

“S. typhimurium glmZ promoter (-242 to +22)” registered a dissociation constant Kd in data set [1] of 370 nM.

Regarding E. coli glmY promoter (-238 to +22), the Kd in data set [1] turned out to be 360 nM.

Regarding “GCACGCGTCGACGTGTTGCCATTATGATTTGTTGGCGATATCCCAGGCTTCATTTGTCGCTATTCGGTGACGAGTAATCTATTGATTTATAATCACTTTGTAAAAAGCATCCTGTTCTGTCTCCACCGGGCGACACGCTAAAACCTCGCCAGCGGCGGGGGGATGACAATCGCGTGAATTCTCTACGTTTTTTTAATGCCTGCGCCTGTTTTTTAGCGGTGCAAAGATGGCACGTTATGTGCAATAATGTACGGGTAGATGCTCATTCCATCTCTTATCTAGAGACG (double strand) [S. typhimurium glmZ promoter (-242 to +22)]”, the Kd in data set [2] was 370 nM.

Consider “GCTCTAGAATAAGTCGGTGAATGAGCCACTGGTTACTATTATGCAGTAACTGTGCCAATAAAGAAAATAGTTTGGTAACGTACTGATTATACGTTGCTTTGAGGGGTTTATGTCTCCTCCGCTGTTTGAATGTAAATCAGCCACTGTGTCGCTAAAAAGAGACAACTTAAGATAAACTTATTAGATAATATTAAAATCAATGAGTTAAGTGTCGCCAGAAAGCGACACGGCAAACCACCCATTGTCGTGATTTACAGACACAAAAAAGGTCGACGCGTGC (double strand) [E. coli glmY promoter (-238 to +22)]”, for which the Kd in data set [2] was 360 nM. For the same substance, the binding result (in data set [2]; in data set [3]; with IHF) was “binds” each time.

Substance “Y. pseudotuberculosis glmZ promoter (-303 to +22)” displayed a Kd in data set [1] of 370 nM. In data set [4], this substance came in with a binding signal (fold higher protein than E. coli GlrR) of 4.
